# Read-outs that look alike come from different tables or passages of the source.
# T1: FcγRIIA H (UniProt P12318 34-217, limits assumed)
# T1 construct: also called FcgRIIA H
# T1 sequence (looked up): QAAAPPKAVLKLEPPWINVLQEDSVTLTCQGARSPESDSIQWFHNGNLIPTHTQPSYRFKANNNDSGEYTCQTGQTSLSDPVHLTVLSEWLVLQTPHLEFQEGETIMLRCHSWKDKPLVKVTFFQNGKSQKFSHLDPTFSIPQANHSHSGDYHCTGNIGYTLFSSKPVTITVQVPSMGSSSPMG
# T2: FcγRIIb (Pichia pastoris produced) (UniProt P31994 43-217, limits assumed)
# T2 construct: also called FcgRIIB; CD32B
# T2 sequence (looked up): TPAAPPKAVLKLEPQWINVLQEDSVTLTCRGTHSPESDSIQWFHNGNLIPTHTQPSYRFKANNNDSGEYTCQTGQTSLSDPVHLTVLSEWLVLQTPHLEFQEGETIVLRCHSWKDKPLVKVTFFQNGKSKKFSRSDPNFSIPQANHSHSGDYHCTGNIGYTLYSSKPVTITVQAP
# T3: FcγRIIa (Pichia pastoris produced) (UniProt P12318 34-217, limits assumed)
# T3 construct: also called CD32A
# T3 sequence (looked up): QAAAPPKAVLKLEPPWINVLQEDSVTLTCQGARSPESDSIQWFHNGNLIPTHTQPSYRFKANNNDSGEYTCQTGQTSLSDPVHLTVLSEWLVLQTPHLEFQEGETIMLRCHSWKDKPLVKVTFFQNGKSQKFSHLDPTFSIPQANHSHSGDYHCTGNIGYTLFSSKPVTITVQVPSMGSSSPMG
# Legend:
# FcγRIIA H = target: T1, FcγRIIA H; experiment: fold change of the Table 12 affinities (reference row)
# Description: (§1) Fcγ receptor binding assays were carried out as described (Shields, et al. (2001) J. Biol. Chem. 276:6591-6604) with minor modifications. High protein binding 96-well plates (Corning Costar) were coated with 100 μL per well of Fcγ receptor solutions in PBS at the following concentrations: 1 μg/mL for both FcγRI (R&D Systems) and FcγRIIa (Pichia pastoris produced), 2 μg/mL for FcγRIIb (P. pastoris produced), 0.8 μg/mL for FcγRIIIa-F158, and 0.4 μg/mL for FcγRIIIa-V158 (both P. pastoris produced). All Pichia pastoris produced receptors were expressed and purified as described (Li, et al. (2006) Nature Biotechnology 24:210-215). Monomeric antibody samples added to the FcγRI plate were serially diluted in assay diluent (1×PBS, 1% BSA, and 0.05% Tween20) and 100 μL, per well was added to the plate. Antibody samples prepared for the remaining receptors require a one hour dimerization step with half molar ratio of goat anti-human IgG F(ab′)2 F(ab′)2 that is conjugated with alkaline phosphatase for detection. These dimerized F(ab′)2/antibody complexes were also serially diluted and 100 μL per well were added to the remaining receptor plates and all plates were incubated for one hour at room temperature. FcγRI bound sample antibody was detected using the same goat anti-human IgG F(ab′)2 alkaline phosphatase conjugated F(ab′)2. Sample antibody binding was quantified by measuring excitation at 340 nm and emission at 465 nm after 18 hour incubation with SuperPhos, 4-MUP Fluorescence AP Substrate Detection System (Virolabs).
# [1] = target: T2, FcγRIIb (Pichia pastoris produced); experiment: as above
# Description: as §1
# [2] = target: T4, FcγRIIIa-F158 (Pichia pastoris produced) (UniProt P08637 17-208, limits assumed); experiment: as above
# T4 construct: also called FcγRIIIA LF; FcgRIIIA LF
# T4 sequence (P08637 17-208 limits assumed): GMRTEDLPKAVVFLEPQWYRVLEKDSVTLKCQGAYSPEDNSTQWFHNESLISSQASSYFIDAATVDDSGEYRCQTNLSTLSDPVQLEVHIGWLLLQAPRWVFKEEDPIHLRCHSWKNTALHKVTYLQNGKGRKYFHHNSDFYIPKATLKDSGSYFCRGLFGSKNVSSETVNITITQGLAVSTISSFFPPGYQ
# Description: as §1
# [3] = target: T2, FcγRIIb (Pichia pastoris produced); experiment: ELISA-type plate assay, FcγR coated, antibody dimerized with AP-conjugated goat anti-human IgG F(ab')2, RFU readout
# Description: as §1
# [4] = target: T4, FcγRIIIa-F158 (Pichia pastoris produced); experiment: as above
# Description: as §1
# [5] = target: T2, FcγRIIb (Pichia pastoris produced); experiment: as above; remark: listed apart in the source
# Description: as §1
# [6] = target: T4, FcγRIIIa-F158 (Pichia pastoris produced); experiment: as above; remark: listed apart in the source
# Description: as §1
# [7] = target: T2, FcγRIIb (Pichia pastoris produced); experiment: as above; remark: listed apart in the source
# Description: as §1
# [8] = target: T4, FcγRIIIa-F158 (Pichia pastoris produced); experiment: as above; remark: listed apart in the source
# Description: as §1
# [9] = target: T3, FcγRIIa (Pichia pastoris produced); experiment: as above
# Description: as §1
# [10] = target: T4, FcγRIIIa-F158 (Pichia pastoris produced); experiment: as above; remark: listed apart in the source
# Description: as §1
# [11] = target: T4, FcγRIIIa-F158 (Pichia pastoris produced); experiment: ELISA on plate-coated receptor; antibody dimerized with anti-human IgG F(ab')2-AP; ELISA IC50, YGLY23258 (dimer), Table 3 experiment
# Description: as §1, with “These dimerized F(ab′)2/antibody complexes were also serially diluted and 100 μL per well were added to the remaining receptor plates and all plates were incubated for one hour at room temperature.” left out
# [12] = target: T5, FcγRIIIa-V158 (Pichia pastoris produced) (UniProt P08637 17-208, limits assumed); experiment: as above
# T5 construct: also called FcγRIIIA LV; FcgRIIIA LV
# T5 sequence (P08637 17-208 F176V limits assumed): as the sequence (P08637 17-208 limits assumed) above, with F160V counted along it
# Description: as §1, with “These dimerized F(ab′)2/antibody complexes were also serially diluted and 100 μL per well were added to the remaining receptor plates and all plates were incubated for one hour at room temperature.” left out
# [13] = target: T4, FcγRIIIa-F158 (Pichia pastoris produced); experiment: ELISA on plate-coated receptor; antibody dimerized with anti-human IgG F(ab')2-AP; ELISA IC50, YGLY23258 (dimer), Table 6 experiment
# Description: as §1, with “These dimerized F(ab′)2/antibody complexes were also serially diluted and 100 μL per well were added to the remaining receptor plates and all plates were incubated for one hour at room temperature.” left out
# [14] = target: T5, FcγRIIIa-V158 (Pichia pastoris produced); experiment: as above
# Description: as §1, with “These dimerized F(ab′)2/antibody complexes were also serially diluted and 100 μL per well were added to the remaining receptor plates and all plates were incubated for one hour at room temperature.” left out
Binder,fold change in affinity vs 1F11 IgG1 GS5.0 (FcγRIIA H),fold change in affinity vs 1F11 IgG1 GS5.0 [1],fold change in affinity vs 1F11 IgG1 GS5.0 [2],EC50 (read off the curve) [3],EC50 (read off the curve) [4],EC50 (read off the curve) [5],EC50 (read off the curve) [6],EC50 (read off the curve) [7],EC50 (read off the curve) [8],EC50 (read off the curve) [9],EC50 (read off the curve) [10],IC50 [11],IC50 [12],IC50 [13],IC50 [14]
"1F11 wildtype (parent) humanized anti-PCSK9 monoclonal IgG1 antibody (antibody, Produced in glycoengineered Pichia pastoris GFI5.0 (strain YGLY21351); also called 1F11 IgG1 GS5.0; YGLY21351) heavy: not shown light: DIQMTQSPSSLSASVGDRVTITCKASQNVGTNVVWYQQKPGKAPKALIHSASYRYSGVPSRFSGSGSGTDFTLTISSLQPEDFATYYCQQYKTYPYTFGQGTKVEIKRTVAAPSVFIFPPSDEQLKSGTASVVCLLNNFYPREAKVQWKVDNALQSGNSQESVTEQDSKDSTYSLSSTLTLSKADYEKHKVYACEVTHQGLSSPVTKSFNRGEC",1 fold,1 fold,1 fold,~0.2 µg/mL,~0.02 µg/mL,~0.4 µg/mL,~0.02 µg/mL,~0.4 µg/mL,~0.02 µg/mL,~0.06 µg/mL,~0.02 µg/mL,,,,
"1F11 IgG1 F243A/V264A double mutein anti-PCSK9 antibody (antibody, sialylated N-glycans; also called 1F11 DM; YGLY23258) heavy: not shown light: DIQMTQSPSSLSASVGDRVTITCKASQNVGTNVVWYQQKPGKAPKALIHSASYRYSGVPSRFSGSGSGTDFTLTISSLQPEDFATYYCQQYKTYPYTFGQGTKVEIKRTVAAPSVFIFPPSDEQLKSGTASVVCLLNNFYPREAKVQWKVDNALQSGNSQESVTEQDSKDSTYSLSSTLTLSKADYEKHKVYACEVTHQGLSSPVTKSFNRGEC",,,,,,,,,,,,0.6 µg/mL,0.09 µg/mL,1.17 µg/mL,0.16 µg/mL
